Laboratory results published in the supplement of paper PMC10567573.

B1: HSP90AB1 (parent)
chain: EADKNDKAVKDLVVLLFETALLSS
B2: DYRK1B (parent)
chain: RFQDLVLRMLEYEPAARISPLGAL

Variants of: B1
Assay: protein stability index of a GFP-peptide fusion (GPS, HEK-293T) (PSI 1-6); higher = more stable
Conditions: c terminus: a fixed tail appended
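Note: lentivirally expressed fusions sorted by FACS into six bins by GFP to DsRed ratio, PSI derived from sequencing read proportions per bin multiplied by bin number.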

Protein stability index: each site, then its substitutions
L21: G 2.58, A 2.49, S 2.28, R 2.11, D 2.57, I 2.17, T 2.79, K 2.35, F 2.13, V 1.94, N 3.31, M 1.86, H 2.27, C 2.14, P 2.88, Y 1.48
S24: F 2.11, Q 1.67, T 1.91, N 2.13, W 1.75, R 1.65, H 1.89, Y 2.04, M 2.16, C 1.4, V 2.29, P 2.72, E 1.93, D 1.93, L 2.06, I 1.51
V14: C 2.81, Y 1.88, A 1.77, I 2.04, D 3.03, Q 2.33, T 2.12, F 1.98, K 2.64, G 2.19, P 3.93, L 1.72, R 2.29, M 1.61, S 2.17, N 2.21, W 1.92
S23: T 2.15, R 2.54, M 2.65, D 2.26, F 1.68, C 2.22, W 2.27, H 2.26, Y 1.63, V 2.41, Q 1.64, I 3.41, P 1.96, N 1.96, K 1.91, A 2.21, L 3.33, G 1.95
A8: S 2.22, M 2.62, L 2.43, V 1.63, T 1.87, N 2.2, K 1.94, R 2.19, P 2.01, W 2.07
L16: Y 2.27, S 3.94, E 4.31, K 3.62, D 4.88, F 1.69, C 3.07, W 2.2, Q 4.37, H 3.34, A 3.56, T 3.63, N 4.05, P 4.67, V 2.16, R 3.37, I 2.07, G 4.18
F17: W 2.26, H 3.13, E 4.22, Y 2.13, T 3.67, S 3.89, M 2.1, G 4.26, P 4.3, Q 3.82, K 3.76, I 1.84, A 3.56, R 3.31, D 4.65, C 2.59, N 3.94, L 1.76, V 1.92
A20: F 2.42, T 1.99, M 1.97, Y 1.44, N 2.16, C 1.47, I 2.19, P 2.27, G 2.46, L 1.44, W 2.07, Q 2.44, V 1.88, E 2.43, S 2.8, R 2.42, D 2.85
V13: S 3.54, G 3.38, F 2.41, T 3.27, E 3.74, Y 2.33, H 2.58, I 1.93, R 2.98, D 3.81, L 2.1, A 2.41, K 3.37, N 3.7, Q 4.08, P 3.78, C 2.03
D11: C 3.23, P 1.51, R 3.27, W 3.06, I 3.6, H 2.61, V 3.05, K 2.15, Y 2.79, M 1.65, N 2.67, G 2.68, E 1.98, T 3.74, A 2.54, S 1.99, F 2.86, Q 1.97
T19: S 2.15, Y 2.02, E 2.71, W 2.52, N 2.15, K 2.2, F 2.57, P 1.83, Q 1.75, I 2.92, M 2.29, H 2.2, C 2.54, V 2.11, L 1.98, G 2.49, R 1.99, D 2.32, A 1.42
K10: Y 2.7, S 1.82, P 1.49, D 2.42, H 2.38, G 1.86, M 1.83, L 1.82, Q 2.19, T 2.26, E 2.18, F 2.22, A 1.82, V 2.48, N 2.01, C 1.96, I 1.96, W 1.83, R 1.8
L22: N 2.68, A 2.85, T 2.29, V 2.17, Q 2.29, H 2.18, G 2.77, R 2.09, M 1.86, D 3.01, S 2.7, E 2.95, Y 1.5, W 1.64, F 1.8
V9: M 1.8, H 3, Q 1.7, W 1.7, P 2.81, D 2.44, T 2.49, F 2.17, Y 2.16, S 2.1, L 2.42, A 1.97, E 3.07, C 1.81, R 1.95, K 2.15, I 1.84
L12: Y 2.16, D 4.21, I 2.46, P 3.2, V 2.1, T 2.73, G 3.5, S 3.49, A 2.52, H 3.27, K 3.6, C 2.35, M 2.2, N 3.89, R 3.44, F 1.72, E 3.99, Q 3.71
E18: R 2.21, D 1.33, S 2.16, T 2.01, M 3, W 2.79, P 2.73, G 4.31, V 4.33, A 2.2, I 3.81, F 3.16, N 1.7, C 1.82, L 2.61, H 2.07, Q 1.77, K 2.42
L15: Q 3.06, W 3.99, I 1.95, T 2.71, E 3.5, Y 2.04, H 2.69, N 3.62, R 2.64, A 2.52, C 2.15, P 4.06, G 3.23, K 2.48, V 1.5, S 2.77, D 3.61, M 1.92

Variants of: B2
Assay: as above
Conditions: c terminus: a fixed tail appended

Protein stability index, by site and new letter:
R1: P 3.11, M 3.36, G 1.58, Y 2.47, H 2.31, N 2.94, D 1.54, S 4.75, F 3.52, K 2.19, W 3, T 2.57
F2: E 3.27, N 2.14, G 2.18, H 2.53, T 2.42, V 3.5, R 2.38, C 2.36, M 3.25, W 1.39, Y 3.05, D 2.38, K 2.15, P 1.76, Q 3.35
D4: H 2.78, I 1.1, N 1.91, K 2.07, R 2.31
Q3: H 1.95, K 2.03, I 2.91, D 1.82, R 1.19, S 2.84, Y 3.44, E 2.19, N 2.28, V 4.49, P 2.05, T 3.41
